Target: MpATG8A (M. polymorpha)
Experiment: ITC

Sequence of MpATG8A (M. polymorpha) (chain, as listed by the source): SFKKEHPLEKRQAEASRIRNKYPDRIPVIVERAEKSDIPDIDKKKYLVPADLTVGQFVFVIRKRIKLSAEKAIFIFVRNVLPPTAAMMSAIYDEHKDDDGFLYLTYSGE

## DWEIV [canonical AIM peptide (AIM wt)]
  Kd: 55.6 nM

Source: publication doi:10.1101/2024.09.08.611708 (2024)
